According to patent publication US20170183667A1 (ANAEROPHARMA SCIENCE, published 2017):

T1: Recombinant Mouse PD-1 Fc Chimera (R&D Systems) (mouse, UniProt Q02242 25-167)
T1 construct: Bought reagent; also called mPD-1; Fc part of the bought chimera not given, not described
T1 sequence (looked up): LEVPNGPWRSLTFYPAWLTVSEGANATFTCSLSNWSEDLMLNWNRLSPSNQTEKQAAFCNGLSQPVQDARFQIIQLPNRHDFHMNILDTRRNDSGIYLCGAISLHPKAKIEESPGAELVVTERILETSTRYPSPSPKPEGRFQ

T2: Recombinant Human CTLA-4-Fc Chimera, carrier-free (BioLegend) (human, UniProt P16410 36-161)
T2 construct: Bought reagent; also called hCTLA-4; Fc part of the bought chimera not given, not described
T2 sequence (looked up): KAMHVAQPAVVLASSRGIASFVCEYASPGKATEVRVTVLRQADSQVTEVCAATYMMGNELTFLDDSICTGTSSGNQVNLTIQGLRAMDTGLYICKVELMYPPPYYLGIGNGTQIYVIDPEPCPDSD


Experiments:
[1] = biological target: T3, Recombinant Human PD-1 Fc Chimera (R&D Systems) (human, UniProt Q15116 25-167); assay: ELISA, hPD-1 Fc chimera immobilised, scFv 1 ng/mL
T3 construct: Bought reagent; also called hPD-1; Fc part of the bought chimera not given, not described
T3 sequence (Q15116 25-167, change not shown): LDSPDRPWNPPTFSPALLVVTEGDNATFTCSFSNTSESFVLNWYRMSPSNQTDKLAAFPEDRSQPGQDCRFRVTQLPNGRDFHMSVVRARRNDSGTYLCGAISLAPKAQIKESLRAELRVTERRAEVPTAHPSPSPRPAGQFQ
Protocol: (§1) After the solution was removed, 350 μL of 1×PBS was dispensed and the solution was removed. This operation was repeated three times to carry out washing. In the above plates, 350 μL of a 1% BSA solution was dispensed and incubated at room temperature for 2 hours to carry out blocking. After removing the solution, 350 μL of 1×PBS was dispensed and the solution was removed. This operation was repeated three times to carry out washing.
(§2) Each solution (100 μL) was dispensed in the plates to which blocking treatment was already applied. […] To a blank well, a signal enhancing reagent (100 μL) alone was dispensed. After the plates were sealed and incubated at room temperature for 2 hours, immobilized hPD-1 was allowed to react with each of the scFv antibodies. After the solution was removed, 350 μL of 1×PBS was dispensed and the solution was removed. This operation was repeated three times to carry out washing.
(§3) This solution (200 μL) was dispensed in the plates. The plates were sealed and incubated at room temperature for 20 minutes. […] Absorbance at 450 nm was measured, whereas absorbance at 570 nm was measured as a control.

[2] = biological target: T3, Recombinant Human PD-1 Fc Chimera (R&D …); assay: ELISA, hPD-1 Fc chimera immobilised, scFv 10 ng/mL
Protocol: as §1, §2, §3

[3] = biological target: T1, Recombinant Mouse PD-1 Fc Chimera (R&D …); assay: ELISA, mPD-1 Fc chimera immobilised, scFv 10 ng/mL
Protocol: (§4) After the solution was removed, 350 μL of 1×PBS was dispensed and the solution was removed. This operation was repeated three times to carry out washing. In the above plates, 350 μL of a 1% BSA solution was dispensed and incubated at room temperature for 2 hours to perform blocking. After the solution was removed, 350 μL of 1×PBS was dispensed and the solution was removed. This operation was repeated three times to carry out washing.
(§5) The anti-PD-1-3 scFv antibody purified from a bacterium of the genus Bifidobacterium was diluted with a signal enhancing reagent (Signal Enhancer HIKARI, manufactured by Nacalai Tesque) to prepare solutions having a concentration of 1000 ng/mL, 100 ng/mL and 10 ng/mL. Each solution (100 μL) was dispensed in the plates to which blocking treatment was already applied. […] To blank wells, a signal enhancing reagent (100 μL) alone was dispensed. After the plates were sealed and incubated at room temperature for 2 hours, immobilized mPD-1 was allowed to react with the anti-PD-1-3 scFv antibody. After the solution was removed, 350 μL of 1×PBS was dispensed and the solution was removed. This operation was repeated three times to carry out washing.
(§6) Absorbance at 450 nm was measured, whereas absorbance at 570 nm was measured as a control.

[4] = biological target: T3, Recombinant Human PD-1 Fc Chimera (R&D …); assay: ELISA, hPD-1 Fc chimera immobilised, scFv 100 ng/mL
Protocol: as §1, §2, §3

[5] = biological target: T1, Recombinant Mouse PD-1 Fc Chimera (R&D …); assay: ELISA, mPD-1 Fc chimera immobilised, scFv 100 ng/mL
Protocol: as §4, §5, §6

[6] = biological target: T3, Recombinant Human PD-1 Fc Chimera (R&D …); assay: ELISA, hPD-1 Fc chimera immobilised, scFv 1000 ng/mL
Protocol: as §1, §2, §3

[7] = biological target: T1, Recombinant Mouse PD-1 Fc Chimera (R&D …); assay: ELISA, mPD-1 Fc chimera immobilised, scFv 1000 ng/mL
Protocol: as §4, §5, §6

[8] = biological target: T2, Recombinant Human CTLA-4-Fc Chimera, …; assay: ELISA, hCTLA-4-Fc chimera immobilised

Row | absorbance 450 nm (570 nm as control) [1] | absorbance 450 nm (570 nm as control) [2] | absorbance 450 nm (570 nm as control) [3] | absorbance 450 nm (570 nm as control) [4] | absorbance 450 nm (570 nm as control) [5] | absorbance 450 nm (570 nm as control) [6] | absorbance 450 nm (570 nm as control) [7] | binding result [8] | Binder
1 | 0.058 | 0.912 | 0.075 | 3.06 | -0.01 | 2.82 | 0.014 |  | anti-PD-1-2 scFv antibody purified from Bifidobacterium longum 105-A/pHuSP7L20-scFv-PD-1-2 strain (scFv, also called anti-human PD-1 antibody) scFv: DSAQTSAVVSSRSFPKASSVMQVQLQESGPGLVKPSQSLSLTCTVTGHSITSDYAWNWIRQFPGDKLEWMGYISYSGYTTYNPSLKSRVSITRDTSKNQFFLQLNSVTTEDTATYFCARDLDYGPWFAYWGQGTTVTVSSGGGGSGGGGSGGGGSDIQMTQSPASLSASVGETVTLTCRASENIHNYLAWYQQKQGKSPQLLVYNVKTLADGVPSRFSGSGSGTQYSLKINSLQPEDFGSYYCQHFWSSPWTFGGGTKLEIKRHHHHHH
2 |  |  | 0.312 |  | 0.561 |  | 3.11 | no binding (tested: up to 1000 ng/mL) | anti-PD-1-3 scFv antibody purified from Bifidobacterium longum 105-A/pHuSP7L20-scFv-PD-1-3 strain (scFv, also called anti-mouse PD-1 scFv antibody; mPD-1 scFv) scFv: DSAQTSAVVSSRSFPKASSVMEVRLLESGGGLVKPEGSLKLSCVASGFTFSDYFMSWVRQAPGKGLEWVAHIYTKSYNYATYYSGSVKGRFTISRDDSRSMVYLQMNNLRTEDTATYYCTRDGSGYPSLDFWGQGTQVTVSSGGGGSGGGGSGGGGSYELTQPPSASVNVGETVKITCSGDQLPKYFADWFHQRSDQTILQVIYDDNKRPSGIPERISGSSSGTTATLTIRDVRAEDEGDYYCFSGYVDSDSKLYVFGSGTQLTVLGHHHHHH
3 | -0.092 | -0.106 |  | -0.117 |  | -0.038 |  |  | anti-CTLA-4-1 scFv antibody purified from Bifidobacterium longum 105-A/pHuSP7L20-scFv-CTLA-4-1 strain (scFv) scFv: DSAQTSAVVSSRSFPKASSVQVQLVESGGGVVQPGRSLRLSCAASGFTFSSYGMHWVRQAPGKGLEWVAVIWYDGSNKYYADSVKGRFTISRDNSKNTLYLQMNSLRAEDTAVYYCARDPRGATLYYYYYGMDVWGQGTTVTVSSGGGGSGGGGSGGGGSDIQMTQSPSSLSASVGDRVTITCRASQSINSYLDWYQQKPGKAPKLLIYAASSLQSGVPSRFSGSGSGTDFTLTISSLQPEDFATYYCQQYYSTPFTFGPGTKVEIKHHHHHH
